# Assay results published in US20140162951A1.
# B1: soluble GFRα-3 IgG1-Fc fusion protein (Fc fusion, UniProt O60609 28-371, looked up, not shown: a dimerising Fc or GST)
# chain: LAAGDPLPTESRLMNSCLQARRKCQADPTCSAAYHHLDSCTSSISTPLPSEEPSVPADCLEAAQQLRNSSLIGCMCHRRMKNQVACLDIYWTVHRARSLGNYELDVSPYEDTVTSKPWKMNLSKLNMLKPDSDLCLKFAMLCTLNDKCDRLRKAYGEACSGPHCQRHVCLRQLLTFFEKAAEPHAQGLLLCPCAPNDRGCGERRRNTIAPNCALPPVAPNCLELRRLCFSDPLCRSRLVDFQTHCHPMDILGTCATEQSRCLRAYLGLIGTAMTPNFVSNVNTSVALSCTCRGSGNLQEECEMLEGFFSHNPCLTEAIAAKMRFHSQLFSQDWPHPTFAVMAHQ
# Biological target: recombinant enovin (mature human enovin with NH2-terminal 6xHis tag, expressed from hEVNmat/pRSETB in E. coli) (human)
# Experiment: SPR (BIAcore 3000), enovin immobilized, soluble GFRα3-Fc at three concentrations
binder,measurement,value
B1,Kd,3.1 nM
same,koff,0.000508 s⁻¹
same,kon,165000 M⁻¹ s⁻¹
